{
  "source": "patent US12162911B2",
  "about": "“Pulmonary administration of pyocins for treating bacterial respiratory infections” (priority 2014, dated 2024)",
  "molecules": {"B1": {"name": "Pyocin S5: S-type pyocin, SEQ ID NO: 13; binds FptA, pore-forming effector (protein, listed as Pseudomonas aeruginosa)", "chain": "MSNDNEVPGSMVIVAQGPDDQYAYEVPPIDSAAVAGNMFGDLIQREIYLQKNIYYPVRSIFEQGTKEKKEINKKVSDQVDGLLKQITQGKREATRQERVDVMSAVLHKMESDLEGYKKTFTKGPFIDYEKQSSLSIYEAWVKIWEKNSWEERKKYPFQQLVRDELERAVAYYKQDSLSEAVKVLRQELNKQKALKEKEDLSQLERDYRTRKANLEMKVQSELDQAGSALPPLVSPTPEQWLERATRLVTQAIADKKQLQTTNNTLIKNSPTPLEKQKAIYNGELLVDEIASLQARLVKLNAETTRRRTEAERKAAEEQALQDAIKFTADFYKEVTEKFGARTSEMARQLAEGARGKNIRSSAEAIKSFEKHKDALNKKLSLKDRQAIAKAFDSLDKQMMAKSLEKFSKGFGVVGKAIDAASLYQEFKISTETGDWKPFFVKIETLAAGAAASWLVGIAFATATATPIGILGFALVMAVTGAMIDEDLLEKANNLVISI"}},
  "key": {"P8AP41T [1]": {"test_system": "P8AP41T", "experiment": "Mouse model of acute lung infection, AP41 tolerant strain P8AP41T", "assay_type": "in vivo, Pseudomonas aeruginosa", "conditions": "3 mg ml^−1 1 h post-infection", "method": "(§1) Model of acute lung infection. Female C57/BL6 mice were inoculated intranasally with 25 μl of bacterial culture containing approximately 10^7 CFU of the selected P. aeruginosa strain^36. Antibiotic treatments were administered at either 6 h pre-infection or 1 h post-infection and were administered only once. Pyocins or tobramycin dissolved in PBS were administered via intranasal administration as described above. Two different end-points were used in these experiments. In order to determine a reduction in the bacterial load of the lungs compared to the untreated controls, all mice in the experiment were culled by carbon dioxide asphyxiation at the same time; 4-6 h post infection. To determine if mice could survive infection after pyocin or tobramycin treatment, mice were monitored closely, culled by carbon dioxide asphyxiation when required as determined by a scoring system or culled at the pre-determined 24 h time point. Uninfected mice, treated with pyocins, were used as controls in the first series of experiments in order to ensure no adverse effects from pyocin treatment. These controls were stopped in later experiments in order to reduce the number of animals used, once it was clear that the pyocins were not harmful. For CFU determination, lungs were removed aseptically and kept on ice in 750 μl of PBS until homogenised. Serial 10-fold dilutions of the homogenised lung were plated on Pseudomonas selective agar (20 g peptone, 1.5 g K2HPO4, 1.5 g MgSO4·7H2O, 10 ml glycerol, 15 g agar, 0.025 g Irgasan per litre) and incubated at 37° C. for 24 h and then room temperature for 24 h before the colonies were counted.\n(§2) In order to determine if pyocin tolerance or resistance was acquired upon pyocin treatment in vivo, viable bacteria recovered from mice that survived infection to the 24 h end-point, in all experiments discussed in this work, were tested for pyocin susceptibility. From these experiments no pyocin resistant colonies were isolated. […] Importantly, sensitivity to pyocins S5 and L1 were unaffected in vitro in this pyocin AP41-tolerant strain (FIG. 3a) and this was also shown to be the case in vivo when mice were infected with P8AP41T."}, "[2]": {"test_system": "collection of diverse environmental and clinical isolates", "experiment": "Activity against a collection of diverse environmental and clinical isolates", "assay_type": "cell-based, Pseudomonas aeruginosa"}, "P. aeruginosa P17": {"test_system": "P. aeruginosa P17", "experiment": "Mouse model of acute lung infection, P. aeruginosa P17", "assay_type": "in vivo, Pseudomonas aeruginosa", "method": "as §1\nSince strains of P. aeruginosa are phenotypically diverse, we tested the efficacy of the pyocins against three additional isolates: P. aeruginosa P17 and P. aeruginosa P5 (mucoid), both from cystic fibrosis patients and P. aeruginosa E2, an environmental isolate. Pyocin S2 was not active against P. aeruginosa P5 or P. aeruginosa E2 in vitro therefore was not used to treat these strains in vivo and similarly pyocin L1 was not used against P. aeruginosa P17. […] Lung homogenates from P. aeruginosa E2-infected AP41-treated mice contained high levels of viable bacteria, reduced only 10-fold relative to control mice (Table 1). […] Thus, pyocins show strong efficacy against diverse strains of P. aeruginosa with pyocin S5 treatment displaying the largest effect on reducing bacterial load."}, "P8AP41T [3]": {"test_system": "P8AP41T", "experiment": "Pyocin sensitivity in vitro (spot tests) of strain P8AP41T", "assay_type": "cell-based, Pseudomonas aeruginosa", "conditions": "spot tests, FIG. 3a", "method": "Pyocin sensitivity assays: overlay spot plate method. Soft agar overlay spot plates were performed using the method of ^35. 150 μl of test strain culture at OD600 nm=0.6 was added to 6 ml of 0.8% soft agar and poured over an LB agar plate. 5 μl of bacteriocin, lung homogenate or blood at varying concentrations was spotted onto the plates and incubated for 24 h at 37° C.\nas §2"}, "P. aeruginosa P8": {"test_system": "P. aeruginosa P8", "experiment": "Mouse model of acute lung infection, P. aeruginosa P8", "assay_type": "in vivo, Pseudomonas aeruginosa", "method": "Study design. […] For all experiments 6 week-old, female, murine pathogen free C57/BL6 mice weighing 15-21 g were used (Charles Rivers Laboratories, UK). All mice received food and water ad libitum and were housed in groups during the experiments. Power calculations were used to predetermine sample size (n=6, for all treatment experiments). Mice were culled when required as determined by a scoring system or culled at the pre-determined 24 h time point. All mice, including outliers were included in the statistical analysis. Experiments were either carried out once only or repeated once (defined for each experiment).\nas §1"}, "[4]": {"experiment": "Pyocin S5-specific antibody titers by indirect ELISA", "method": "Determination of pyocin S5-specific antibody titers by indirect ELISA. For analysis of IgG and IgA responses, blood was obtained by cardiac puncture immediately after carbon dioxide asphyxiation. Serum was obtained by centrifugation of samples at 13,500 g for 10 min followed by collection of the supernatant. Serum was stored at −80° C. Greiner 96-well plates (MaxiSorp) were coated with purified recombinant pyocin S5 (7.5 μg ml^−1, 50 μl/well) protein in PBS overnight at 4° C. The plates were washed three times with phosphate buffered saline+0.05% TWEEN20 (PBST) and then blocked for 1 h at 37° C. with 150 μl of blocking buffer (1% bovine serum albumin (BSA) in PBS). After washing, five-fold serially diluted samples were added, starting at a dilution of 1/50 in blocking buffer, and incubated for 2 h at 37° C. Serum from mice given pyocin S5+Freunds complete/incomplete subcutaneously three times over four weeks was used as a positive control and uncoated wells were used as negative controls. Serum from individual mice were analysed and replicate samples were carried out on separate days. After washing with PBST, 50 μl of anti-mouse IgG (Fc specific)-peroxidase antibody ((1/1000 dilution) Sigma, UK) or anti-mouse IgA (α-chain specific)-peroxidase antibody ((1/250 dilution) Sigma, UK) in PBST/0.1% BSA was added and plates were incubated for 1 h at 37° C. Plates were developed using […] OPD (o-Phenylenediamine dihydrochloride) tablets (Sigma, UK) and reactions were stopped using 3 M HCl. Optical densities (ODs) were read at 450 nm using a FLUOstar OPTIMA plate reader (BMG labtech, Germany)."}, "[5]": {"conditions": "survival to 24 h, treatment 1 h post-infection"}, "[6]": {"conditions": "mice repeatedly exposed I.N., 75 μg/dose three times (FIG. 8b)"}, "[7]": {"conditions": "mice repeatedly exposed I.P., 75 μg/dose three times (FIG. 8d)"}},
  "note": "“Also recorded” adds a separate entry of the source.",
  "data": [
    {"molecule": "B1", "values": [
      {"measurement": "bacterial numbers in lung homogenates", "setting": "P8AP41T [1]; 24 h (FIG. 3b)", "result": "significantly reduced bacterial numbers; also recorded: No colonies were recovered"},
      {"measurement": "survival", "setting": "P8AP41T [1]; endpoint 24 h, PBS controls culled 6 h post-infection (FIG. 3b)", "result": "survived until the endpoint of the experiment at 24 h"},
      {"measurement": "strains against which active", "setting": "[2]", "result": 87, "unit": "%"},
      {"measurement": "survival / protection", "setting": "P. aeruginosa P17; pyocin 3 mg ml^−1, endpoint 24 h, infected controls culled at 4 h", "result": "survived until the 24 h endpoint"},
      {"measurement": "bacterial count in lung, P17", "setting": "P. aeruginosa P17; pyocin 3 mg ml^−1, treated mice survived to 24 h, no treatment 4.4 × 10^5 CFU/lung", "result": "No colonies"},
      {"measurement": "sensitivity of the pyocin AP41-tolerant strain in vitro", "setting": "P8AP41T [3]", "result": "unaffected"},
      {"measurement": "survival", "setting": "P. aeruginosa P8; 30 ng ml^−1, 1 h post-infection (FIG. 2b)", "result": "survived to 24 h"},
      {"measurement": "bacterial counts compared to the PBS controls", "setting": "P. aeruginosa P8; 30 ng ml^−1, 24 h post-infection (FIG. 2b)", "result": "significantly reduced the bacterial counts"},
      {"measurement": "bacteria recovered from lung", "setting": "P. aeruginosa P8; 3 mg ml^−1 1 h post-infection, 24 h post-infection, six mice (FIG. 1d)", "result": "no bacteria recovered; also recorded: No colonies were recovered"},
      {"measurement": "treated mice from which viable bacteria were recovered", "setting": "P. aeruginosa P8; 3 mg ml^−1 intranasal 1 h post-infection, culled 4.5 h post-infection (FIG. 1c)", "result": "three out of six"},
      {"measurement": "viable bacteria recovered from lung", "setting": "P. aeruginosa P8; 3 mg ml^−1 intranasal 6 h pre-infection, 24 h post-infection (FIG. 1b)", "result": "no viable bacteria were recovered; also recorded: No colonies were recovered"},
      {"measurement": "viable bacteria recovered from lung homogenates", "setting": "P. aeruginosa P8; C57/BL6 mice, 3 mg ml^−1 intranasal 6 h pre-infection, culled 4 h post-infection (FIG. 1a)", "result": "no viable bacteria were recovered; also recorded: No colonies were recovered"},
      {"measurement": "concentration at which effective in this model", "setting": "P. aeruginosa P8; in vivo", "result": "lower than 1 nM"},
      {"measurement": "Lowest active concentration tested", "setting": "P. aeruginosa P8; lowest concentration tested with which the treated mice survived to 24 h", "result": 30, "unit": "ng/mL"},
      {"measurement": "potency relative to tobramycin", "setting": "P. aeruginosa P8; minimum effective concentrations compared", "result": "at least 100 fold"},
      {"measurement": "Corresponding molarity", "setting": "P. aeruginosa P8; molarity of lowest active concentration tested", "result": 535, "unit": "pM"},
      {"measurement": "bacterial load compared with tobramycin", "setting": "P. aeruginosa P8; pyocin S5 0.3 or 3 mg ml^−1 versus tobramycin 30 or 3 mg ml^−1, 1 h post-infection, culled 4.5 h (FIG. 2a)", "result": "reduced the bacterial load to a greater extent than tobramycin"},
      {"measurement": "bacterial counts compared with tobramycin", "setting": "P. aeruginosa P8; repeat of FIG. 2a experiment (FIG. 6)", "result": "reduced bacterial counts to a greater extent than tobramycin"},
      {"measurement": "lowest concentration at which effective (lower limit)", "setting": "P. aeruginosa P8; [5]", "result": "> 300", "unit": "pg/mL"},
      {"measurement": "lowest concentration at which effective (upper limit)", "setting": "P. aeruginosa P8; [5]", "result": "≤ 30", "unit": "ng/mL"},
      {"measurement": "pyocin-S5 specific IgA in serum", "setting": "[4]; [6]", "result": "no IgA antibodies detected"},
      {"measurement": "pyocin-S5 specific IgG, fold less than the Freunds complete/incomplete control group", "setting": "[4]; [6]", "result": 10, "unit": "fold"},
      {"measurement": "pyocin S5-specific IgA in serum", "setting": "[4]; [7]", "result": "no pyocin S5-specific IgA was detected"},
      {"measurement": "pyocin S5-specific IgG, fold less than the Freunds complete/incomplete control group", "setting": "[4]; [7]", "result": 1000, "unit": "fold"}
    ]}
  ]
}
